Reference: publication PMC7105138, “Modeling cancer genomic data in yeast reveals selection against ATM function during tumorigenesis” (PLoS Genetics, 2020)

How the values were obtained:
Assay in all cases: EMSA
Conditions in all cases: ATP, 5 mM Mg2+, 150 mM NaCl; 25 mM Tris-Cl pH 7.6, 150 mM NaCl (also 50, 250, 300 mM), 7.5% glycerol, 1 mM beta-mercaptoethanol, 0.125% Igepal, 5 mM MgCl2, with or without 5 mM ATP; 5 nM …
[1] = system: Rad50-D67N (Saccharomyces cerevisiae)
[2] = system: Rad50-L1240F-I23V (Saccharomyces cerevisiae)
[3] = system: Rad50-L1240F (Saccharomyces cerevisiae)
[4] = system: Rad50-D67Y (Saccharomyces cerevisiae)

83-mer dsDNA oligonucleotide gave a Kd [1] of 200 nM, a Kd [2] of over 800 nM and a Kd [3] of over 800 nM. The Kd [4] was 320 nM.
